Measurements: PMC4333827

Experiments:
[1] = target: C-terminal helical domain-deleted (ΔH-domain) form of CoMsrA (residues 1-144) (Clostridium oremlandii) (UniProt A8MI53); experiment: SEC; gel filtration on Superdex S75 16/60 at the final purification step; 10 mM Tris-HCl pH 8.0, 100 mM NaCl
[2] = target: C-terminal helical domain-deleted (ΔH-domain) form of CoMsrA (residues 1-144) (Clostridium oremlandii) (UniProt A8MI53); experiment: as above; remark: listed apart in the source
[3] = target: C-terminal helical domain-deleted (ΔH-domain) form of CoMsrA (residues 1-144) (Clostridium oremlandii) (UniProt A8MI53); experiment: native gel or EMSA; native-PAGE; 0.2 mg/ml protein in 10 mM Tris-HCl pH 8.0, 100 mM NaCl; without and with 10 mM DTT
[4] = target: C-terminal helical domain-deleted (ΔH-domain) form of CoMsrA (residues 1-144) (Clostridium oremlandii) (UniProt A8MI53); experiment: SEC-MALS; SEC-MALLS; WTC-015S5 column, 20 mM Tris-HCl pH 8.0, 100 mM NaCl, 298 K, 0.5 ml/min; 2.5 mg/ml full-length, 1.5 mg/ml ΔH-domain

stoichiometry N [1]: 2
stoichiometry N [2]: 4
stoichiometry N [3]: 2
stoichiometry N [4]: 2
Substance: C-terminal helical domain-deleted (ΔH-domain) form of CoMsrA (residues 1-144) (from UniProt A8MI53 1-144) (domain or fragment)
